Target: T1, hiR2-FL-G563D-T7 (human, UniProt Q6PJF5 1-856)
T1 sequence: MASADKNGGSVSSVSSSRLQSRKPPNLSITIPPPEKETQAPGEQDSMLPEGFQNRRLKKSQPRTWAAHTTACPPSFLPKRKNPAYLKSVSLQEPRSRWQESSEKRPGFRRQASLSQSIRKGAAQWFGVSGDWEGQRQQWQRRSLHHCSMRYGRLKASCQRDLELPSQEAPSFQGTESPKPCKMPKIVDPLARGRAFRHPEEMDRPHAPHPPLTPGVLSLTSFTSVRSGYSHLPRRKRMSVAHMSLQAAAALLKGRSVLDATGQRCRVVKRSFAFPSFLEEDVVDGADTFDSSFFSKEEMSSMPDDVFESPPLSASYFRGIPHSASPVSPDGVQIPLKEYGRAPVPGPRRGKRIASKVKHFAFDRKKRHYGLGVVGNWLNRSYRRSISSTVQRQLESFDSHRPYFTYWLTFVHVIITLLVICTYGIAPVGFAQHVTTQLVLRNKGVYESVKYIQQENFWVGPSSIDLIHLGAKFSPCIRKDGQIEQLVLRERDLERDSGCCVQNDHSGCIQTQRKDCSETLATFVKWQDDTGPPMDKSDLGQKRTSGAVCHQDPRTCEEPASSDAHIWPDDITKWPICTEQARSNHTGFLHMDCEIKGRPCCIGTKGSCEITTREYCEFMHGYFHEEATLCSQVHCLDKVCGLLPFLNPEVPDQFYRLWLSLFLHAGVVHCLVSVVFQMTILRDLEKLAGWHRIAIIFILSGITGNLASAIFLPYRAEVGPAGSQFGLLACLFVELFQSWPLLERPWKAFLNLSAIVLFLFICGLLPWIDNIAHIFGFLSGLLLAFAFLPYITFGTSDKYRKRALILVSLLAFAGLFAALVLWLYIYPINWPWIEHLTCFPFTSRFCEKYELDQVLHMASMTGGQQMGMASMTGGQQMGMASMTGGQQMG
Experiment: FACS, MEF-DKO cells, 3 µg/ml
Method in brief: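 Binding read by flow cytometry after a PE goat anti-mouse IgG F(ab′)2 secondary (1:100, on ice, 1 h, dark). Before that, immortalized MEF-DKO lines carrying single-mutant hiR2-FL-T7 constructs were incubated 1 h on ice with 3 μg/ml antibody or FACS buffer alone.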

B1: antibody 50 (antibody, V domains shown)
VH: QVQLQQSGAELVRPGASVKVSCKASGYAFSNYLIEWVKQRPGQGLEWIGVINPGSGFTKYNEKFKGKATLTADKSSSTAYMQLSSLTSEDSAVYFCARGLYRAMDYWGQGTSVTVSS
VL: DIQMTQSPASQSASLGESVTITCLASQTIGTWLAWYQQKPGKSPQLLIYAAASLADGVPSRFSGGGSGTKFSFKISSLQAEDFVNYYCQQIYSTPYTFGGGTKLEIK
notes: mouse IgG, kappa light chain; also called clone #50; purified antibody 50
loss of binding vs wild type: ≥ 30%
